# IntAct's records for PubMed 25910212
# B1: Cyclin-dependent kinase 4 (Homo sapiens), P11802 (parent)
# chain: MATSRYEPVAEIGVGAYGTVYKARDPHSGHFVALKSVRVPNGGGGGGGLPISTVREVALLRRLEAFEHPNVVRLMDVCATSRTDREIKVTLVFEHVDQDLRTYLDKAPPPGLPAETIKDLMRQFLRGLDFLHANCIVHRDLKPENILVTSGGTVKLADFGLARIYSYQMALTPVVVTLWYRAPEVLLQSTYATPVDMWSVGCIFAEMFRRKPLFCGNSEADQLGKIFDLIGLPPEDDWPRDVSLPRGAFPPRGPRPVQSVVPEMEESGAQLLLEMLTFNPHKRISAFRALQHSYLHKDEGNPE
# Variants of: B1
# Details: with ccnd1_human CCND1, P24385
# Chain of ccnd1_human CCND1, P24385 (P24385 whole entry): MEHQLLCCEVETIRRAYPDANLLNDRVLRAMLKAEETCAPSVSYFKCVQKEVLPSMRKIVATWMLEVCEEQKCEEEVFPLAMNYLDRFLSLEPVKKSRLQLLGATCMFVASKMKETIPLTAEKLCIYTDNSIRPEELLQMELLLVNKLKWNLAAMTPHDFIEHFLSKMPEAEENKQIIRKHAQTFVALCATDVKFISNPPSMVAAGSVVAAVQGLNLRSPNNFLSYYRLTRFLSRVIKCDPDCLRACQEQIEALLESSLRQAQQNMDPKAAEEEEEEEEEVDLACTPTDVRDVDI
row,Variant,effect of a mutation on the interaction
1,MATSRYEPVAEIGVGAYGTVYKAHDPHSGHFVALKSVRVPNGGGGGGGLPISTVREVALLRRLEAFEHPNVVRLMDVCATSRTDREIKVTLVFEHVDQDLRTYLDKAPPPGLPAETIKDLMRQFLRGLDFLHANCIVHRDLKPENILVTSGGTVKLADFGLARIYSYQMALTPVVVTLWYRAPEVLLQSTYATPVDMWSVGCIFAEMFRRKPLFCGNSEADQLGKIFDLIGLPPEDDWPRDVSLPRGAFPPRGPRPVQSVVPEMEESGAQLLLEMLTFNPHKRISAFRALQHSYLHKDEGNPE [R24H],with no effect
2,MATSRYEPVAEIGVGAYGTVYKARDPHSGHFVALKSVRVPSGGGGGGGLPISTVREVALLRRLEAFEHPNVVRLMDVCATSRTDREIKVTLVFEHVDQDLRTYLDKAPPPGLPAETIKDLMRQFLRGLDFLHANCIVHRDLKPENILVTSGGTVKLADFGLARIYSYQMALTPVVVTLWYRAPEVLLQSTYATPVDMWSVGCIFAEMFRRKPLFCGNSEADQLGKIFDLIGLPPEDDWPRDVSLPRGAFPPRGPRPVQSVVPEMEESGAQLLLEMLTFNPHKRISAFRALQHSYLHKDEGNPE [N41S],with no effect
3,MATSRYEPVAEIGVGAYGTVYKARDPHSGHFVALKSVRVPNGGGGGGGLPINTVREVALLRRLEAFEHPNVVRLMDVCATSRTDREIKVTLVFEHVDQDLRTYLDKAPPPGLPAETIKDLMRQFLRGLDFLHANCIVHRDLKPENILVTSGGTVKLADFGLARIYSYQMALTPVVVTLWYRAPEVLLQSTYATPVDMWSVGCIFAEMFRRKPLFCGNSEADQLGKIFDLIGLPPEDDWPRDVSLPRGAFPPRGPRPVQSVVPEMEESGAQLLLEMLTFNPHKRISAFRALQHSYLHKDEGNPE [S52N],with no effect

# Variants of: B1
# Details: with ccnd3_human CCND3, P30281
# Chain of ccnd3_human CCND3, P30281 (P30281 whole entry): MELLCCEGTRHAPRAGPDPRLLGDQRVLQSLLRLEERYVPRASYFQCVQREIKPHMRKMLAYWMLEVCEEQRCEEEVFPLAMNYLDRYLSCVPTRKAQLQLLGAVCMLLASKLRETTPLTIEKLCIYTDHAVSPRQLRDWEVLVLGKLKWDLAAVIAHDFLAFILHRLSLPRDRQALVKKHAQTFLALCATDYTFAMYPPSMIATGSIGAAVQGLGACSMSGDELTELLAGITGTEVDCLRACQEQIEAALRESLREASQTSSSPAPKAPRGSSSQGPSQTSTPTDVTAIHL
row,Variant,effect of a mutation on the interaction
1,MATSRYEPVAEIGVGAYGTVYKAHDPHSGHFVALKSVRVPNGGGGGGGLPISTVREVALLRRLEAFEHPNVVRLMDVCATSRTDREIKVTLVFEHVDQDLRTYLDKAPPPGLPAETIKDLMRQFLRGLDFLHANCIVHRDLKPENILVTSGGTVKLADFGLARIYSYQMALTPVVVTLWYRAPEVLLQSTYATPVDMWSVGCIFAEMFRRKPLFCGNSEADQLGKIFDLIGLPPEDDWPRDVSLPRGAFPPRGPRPVQSVVPEMEESGAQLLLEMLTFNPHKRISAFRALQHSYLHKDEGNPE [R24H],with no effect
2,MATSRYEPVAEIGVGAYGTVYKARDPHSGHFVALKSVRVPSGGGGGGGLPISTVREVALLRRLEAFEHPNVVRLMDVCATSRTDREIKVTLVFEHVDQDLRTYLDKAPPPGLPAETIKDLMRQFLRGLDFLHANCIVHRDLKPENILVTSGGTVKLADFGLARIYSYQMALTPVVVTLWYRAPEVLLQSTYATPVDMWSVGCIFAEMFRRKPLFCGNSEADQLGKIFDLIGLPPEDDWPRDVSLPRGAFPPRGPRPVQSVVPEMEESGAQLLLEMLTFNPHKRISAFRALQHSYLHKDEGNPE [N41S],with no effect
3,MATSRYEPVAEIGVGAYGTVYKARDPHSGHFVALKSVRVPNGGGGGGGLPINTVREVALLRRLEAFEHPNVVRLMDVCATSRTDREIKVTLVFEHVDQDLRTYLDKAPPPGLPAETIKDLMRQFLRGLDFLHANCIVHRDLKPENILVTSGGTVKLADFGLARIYSYQMALTPVVVTLWYRAPEVLLQSTYATPVDMWSVGCIFAEMFRRKPLFCGNSEADQLGKIFDLIGLPPEDDWPRDVSLPRGAFPPRGPRPVQSVVPEMEESGAQLLLEMLTFNPHKRISAFRALQHSYLHKDEGNPE [S52N],with no effect

# Variants of: B1
# Details: with ccnd2_human CCND2, P30279
# Chain of ccnd2_human CCND2, P30279 (P30279 whole entry): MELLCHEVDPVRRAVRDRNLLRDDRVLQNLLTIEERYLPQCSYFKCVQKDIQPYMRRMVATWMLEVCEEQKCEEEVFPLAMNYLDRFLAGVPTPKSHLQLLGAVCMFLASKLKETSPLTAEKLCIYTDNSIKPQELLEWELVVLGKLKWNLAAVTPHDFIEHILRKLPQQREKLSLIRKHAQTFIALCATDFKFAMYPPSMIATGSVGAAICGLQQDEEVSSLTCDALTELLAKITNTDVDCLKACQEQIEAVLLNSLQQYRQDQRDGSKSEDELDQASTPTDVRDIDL
row,Variant,effect of a mutation on the interaction
1,MATSRYEPVAEIGVGAYGTVYKAHDPHSGHFVALKSVRVPNGGGGGGGLPISTVREVALLRRLEAFEHPNVVRLMDVCATSRTDREIKVTLVFEHVDQDLRTYLDKAPPPGLPAETIKDLMRQFLRGLDFLHANCIVHRDLKPENILVTSGGTVKLADFGLARIYSYQMALTPVVVTLWYRAPEVLLQSTYATPVDMWSVGCIFAEMFRRKPLFCGNSEADQLGKIFDLIGLPPEDDWPRDVSLPRGAFPPRGPRPVQSVVPEMEESGAQLLLEMLTFNPHKRISAFRALQHSYLHKDEGNPE [R24H],with no effect
2,MATSRYEPVAEIGVGAYGTVYKARDPHSGHFVALKSVRVPSGGGGGGGLPISTVREVALLRRLEAFEHPNVVRLMDVCATSRTDREIKVTLVFEHVDQDLRTYLDKAPPPGLPAETIKDLMRQFLRGLDFLHANCIVHRDLKPENILVTSGGTVKLADFGLARIYSYQMALTPVVVTLWYRAPEVLLQSTYATPVDMWSVGCIFAEMFRRKPLFCGNSEADQLGKIFDLIGLPPEDDWPRDVSLPRGAFPPRGPRPVQSVVPEMEESGAQLLLEMLTFNPHKRISAFRALQHSYLHKDEGNPE [N41S],with no effect
3,MATSRYEPVAEIGVGAYGTVYKARDPHSGHFVALKSVRVPNGGGGGGGLPINTVREVALLRRLEAFEHPNVVRLMDVCATSRTDREIKVTLVFEHVDQDLRTYLDKAPPPGLPAETIKDLMRQFLRGLDFLHANCIVHRDLKPENILVTSGGTVKLADFGLARIYSYQMALTPVVVTLWYRAPEVLLQSTYATPVDMWSVGCIFAEMFRRKPLFCGNSEADQLGKIFDLIGLPPEDDWPRDVSLPRGAFPPRGPRPVQSVVPEMEESGAQLLLEMLTFNPHKRISAFRALQHSYLHKDEGNPE [S52N],with no effect

# Variants of: B1
# Details: with cdn2b_human CDKN2B
row,Variant,effect of a mutation on the interaction
1,MATSRYEPVAEIGVGAYGTVYKAHDPHSGHFVALKSVRVPNGGGGGGGLPISTVREVALLRRLEAFEHPNVVRLMDVCATSRTDREIKVTLVFEHVDQDLRTYLDKAPPPGLPAETIKDLMRQFLRGLDFLHANCIVHRDLKPENILVTSGGTVKLADFGLARIYSYQMALTPVVVTLWYRAPEVLLQSTYATPVDMWSVGCIFAEMFRRKPLFCGNSEADQLGKIFDLIGLPPEDDWPRDVSLPRGAFPPRGPRPVQSVVPEMEESGAQLLLEMLTFNPHKRISAFRALQHSYLHKDEGNPE [R24H],with no effect
2,MATSRYEPVAEIGVGAYGTVYKARDPHSGHFVALKSVRVPSGGGGGGGLPISTVREVALLRRLEAFEHPNVVRLMDVCATSRTDREIKVTLVFEHVDQDLRTYLDKAPPPGLPAETIKDLMRQFLRGLDFLHANCIVHRDLKPENILVTSGGTVKLADFGLARIYSYQMALTPVVVTLWYRAPEVLLQSTYATPVDMWSVGCIFAEMFRRKPLFCGNSEADQLGKIFDLIGLPPEDDWPRDVSLPRGAFPPRGPRPVQSVVPEMEESGAQLLLEMLTFNPHKRISAFRALQHSYLHKDEGNPE [N41S],with no effect
3,MATSRYEPVAEIGVGAYGTVYKARDPHSGHFVALKSVRVPNGGGGGGGLPINTVREVALLRRLEAFEHPNVVRLMDVCATSRTDREIKVTLVFEHVDQDLRTYLDKAPPPGLPAETIKDLMRQFLRGLDFLHANCIVHRDLKPENILVTSGGTVKLADFGLARIYSYQMALTPVVVTLWYRAPEVLLQSTYATPVDMWSVGCIFAEMFRRKPLFCGNSEADQLGKIFDLIGLPPEDDWPRDVSLPRGAFPPRGPRPVQSVVPEMEESGAQLLLEMLTFNPHKRISAFRALQHSYLHKDEGNPE [S52N],with no effect

# Variants of: B1
# Details: with cdn2c_human CDKN2C
row,Variant,effect of a mutation on the interaction
1,MATSRYEPVAEIGVGAYGTVYKAHDPHSGHFVALKSVRVPNGGGGGGGLPISTVREVALLRRLEAFEHPNVVRLMDVCATSRTDREIKVTLVFEHVDQDLRTYLDKAPPPGLPAETIKDLMRQFLRGLDFLHANCIVHRDLKPENILVTSGGTVKLADFGLARIYSYQMALTPVVVTLWYRAPEVLLQSTYATPVDMWSVGCIFAEMFRRKPLFCGNSEADQLGKIFDLIGLPPEDDWPRDVSLPRGAFPPRGPRPVQSVVPEMEESGAQLLLEMLTFNPHKRISAFRALQHSYLHKDEGNPE [R24H],disrupting interaction strength
2,MATSRYEPVAEIGVGAYGTVYKARDPHSGHFVALKSVRVPSGGGGGGGLPISTVREVALLRRLEAFEHPNVVRLMDVCATSRTDREIKVTLVFEHVDQDLRTYLDKAPPPGLPAETIKDLMRQFLRGLDFLHANCIVHRDLKPENILVTSGGTVKLADFGLARIYSYQMALTPVVVTLWYRAPEVLLQSTYATPVDMWSVGCIFAEMFRRKPLFCGNSEADQLGKIFDLIGLPPEDDWPRDVSLPRGAFPPRGPRPVQSVVPEMEESGAQLLLEMLTFNPHKRISAFRALQHSYLHKDEGNPE [N41S],with no effect
3,MATSRYEPVAEIGVGAYGTVYKARDPHSGHFVALKSVRVPNGGGGGGGLPINTVREVALLRRLEAFEHPNVVRLMDVCATSRTDREIKVTLVFEHVDQDLRTYLDKAPPPGLPAETIKDLMRQFLRGLDFLHANCIVHRDLKPENILVTSGGTVKLADFGLARIYSYQMALTPVVVTLWYRAPEVLLQSTYATPVDMWSVGCIFAEMFRRKPLFCGNSEADQLGKIFDLIGLPPEDDWPRDVSLPRGAFPPRGPRPVQSVVPEMEESGAQLLLEMLTFNPHKRISAFRALQHSYLHKDEGNPE [S52N],with no effect

# Variants of: B1
# Details: with cdn2b_human CDKN2B
# Remark: another data set of the same source
row,Variant,effect of a mutation on the interaction
1,MATSRYEPVAEIGVGAYGTVYKAHDPHSGHFVALKSVRVPNGGGGGGGLPISTVREVALLRRLEAFEHPNVVRLMDVCATSRTDREIKVTLVFEHVDQDLRTYLDKAPPPGLPAETIKDLMRQFLRGLDFLHANCIVHRDLKPENILVTSGGTVKLADFGLARIYSYQMALTPVVVTLWYRAPEVLLQSTYATPVDMWSVGCIFAEMFRRKPLFCGNSEADQLGKIFDLIGLPPEDDWPRDVSLPRGAFPPRGPRPVQSVVPEMEESGAQLLLEMLTFNPHKRISAFRALQHSYLHKDEGNPE [R24H],disrupting interaction strength
